B1: Ubiquitin-protein ligase residues 30 to 86; numbered along this chain, Q05086 (parent)
chain: KHLIERYYHQLTEGCGNEACTNEFCASCPTFLRMDNNAAAIKALELYKINAKLCDPH

Variants of: B1
Assay: abundance fitness (aPCA) (normalised: wild type 0, dead -1); higher = more abundant; growth selection in yeast, the domain comes from the species named
Conditions: Homo sapiens

Abundance fitness, by site and new letter:
E23: M -0.021, R -0.045, Y -0.102, H -0.09, S -0.001, T -0.022, C -0.082, A -0.077, W -0.134, Q -0.019, L -0.106, G -0.045, D -0.062, K -0.054, P -0.105, F -0.084
T30: C -0.022, Y -0.216, W -0.006, V -0.083, E -0.055, I -0.042, A 0.018, M -0.153, K 0.012, D -0.071, Q -0.048, P -0.097, S 0.016, L -0.083, G 0.025, R 0.044, N -0.052
G16: Y -0.117, W -0.191, N -0.061, M -0.179, L -0.11, P -0.132, A -0.049, I -0.33, S -0.062, E -0.049, Q -0.059, D -0.041, R -0.127, C -0.049, K -0.064, V -0.2, F -0.221
F31: Y -0.06, H -0.013, V -0.038, I -0.169, E -0.124, C -0.043, W -0.188, P -0.185, G -0.025, T -0.023, N 0.027, R -0.14, Q -0.098, M 0.057
C20: S -0.821, Q -0.893, L -1.03, P -1.03, I -0.941, N -1.1, E -1.02, K -1.13, V -1.02, F -0.889, D -0.883, Y -0.717, M -1.08, W -0.98, G -0.86
S27: H -0.196, A -0.072, D -0.131, Q -0.179, E -0.374, V -0.594, Y -0.441, M -0.112, T -0.113, K -0.06, N -0.06, W -0.772, F -0.349, I -0.763, P -0.711, R -0.186, C -0.061, L -0.523, G -0.09
R33: D -0.245, P -0.017, S -0.041, F -0.415, M -0.145, I -0.1, A -0.099, G 0.014, E -0.011, C -0.152, H -0.109, N -0.109, L -0.148, K 0.033
C28: E -0.144, P -0.475, G -0.183, Y -0.06, F -0.031, I -0.276, S -0.064, V -0.151, L -0.217, R -0.071, W -0.16, N -0.006, A -0.019, D -0.171, T -0.07, Q -0.128, K -0.038
T21: K 0.059, S -0.037, H 0.018, V -0.005, N 0.067, G -0.022, R -0.038, L -0.086, E 0.043, C -0.015, I -0.033, M -0.129, F -0.008, Y -0.458, P -0.076, D -0.011, A 0.029, Q -0.046, W -0.105
A19: P -0.084, I -0.102, S -0.008, M 0.011, L -0.045, V -0.013, W -0.073, Y -0.1, D 0.023, G -0.015, R -0.022, E 0.004, H -0.006, N -0.015, K -0.001, F -0.031, C -0.12
F24: D -0.026, M -0.031, G -0.057, T -0.018, A -0.041, I -0.024, V -0.03, W 0.07, E -0.057, Y -0.026, R -0.095, K -0.041, L -0.016, N -0.017, Q 0.016, S -0.033, P -0.734, H 0.028
C25: V -0.891, E -0.72, I -0.613, M -0.841, F -0.791, K -1.01, S -0.741, W -1.05, L -1.08, H -0.887, R -1.05, Y -0.816, G -0.973, A -1.03, N -0.882, P -1.18
A26: H -0.163, Y -0.076, F 0.077, M -0.111, V -0.156, S -0.047, T -0.328, D -0.67, K 0.034, C -0.053, G -0.146, E -0.332, R -0.096, P -0.876, L -0.143, W -0.104, Q -0.156, I -0.097
L32: K 0.081, Y -0.233, S -0.053, T 0.098, V 0.009, H -0.093, N 0.202, F -0.239, C -0.082, I -0.036, W -0.193, D -0.049, A 0.006, R -0.033, Q 0.043, P 0.148, G -0.034
N17: A -0.001, W 0.005, S -0.034, P -0.091, E -0.029, H -0.008, M -0.096, F -0.091, L -0.071, V -0.05, R -0.042, T 0.014, D -0.04, Q -0.087, C -0.037, Y -0.042, G -0.008, K 0.027, I -0.067
G14: V -0.973, T -0.848, W -0.942, L -0.967, S -0.946, N -0.849, I -1.02, E -0.919, Q -1.09, R -0.966, H -0.957, Y -1.02, F -0.865
N22: H -0.345, F -0.418, M -0.478, G -0.318, P -0.916, Q -0.286, E -0.236, S -0.033, Y -0.277, V -0.301, D -0.602, I -0.492, K -0.831, R -0.638, L -0.727, T -0.12, W -0.73, C -0.532
E18: H 0.014, T -0.003, C -0.044, D -0.004, I -0.075, A 0, K -0.089, V -0.023, S 0.001, W -0.151, Q 0.076, Y -0.071, N 0.061, L -0.056, G -0.054, R -0.066, F -0.181, M 0.006
C15: H -0.576, G -0.973, E -0.943, M -1.04, F -0.885, Y -0.944, P -1.09, L -1, A -0.789, D -0.796, T -0.833, R -0.912, N -0.981, S -1.07, Q -0.85, W -0.969
P29: E 0.03, S -0.09, K -0.014, Q -0.103, L -0.149, V -0.156, D -0.252, F -0.195, N -0.304, Y -0.191, R -0.061, W -0.557, I -0.122, A -0.118, H -0.036, G -0.088

Source: the Human Domainome abundance scans (Beltran et al. 2025)
